{
  "source": "patent US8669347B2",
  "about": "“Truncated variant of the mammalian target for rapamycin (MTOR) protein” (UCL Business PLC, priority 2007, dated 2014)",
  "key": {"[1]": {"tested_on": "Hek293 cells", "experiment": "BrdU pulse-chase cell cycle analysis by FACS", "type": "cell-based, human", "conditions": "overexpressing cells vs mTORα or control (EGFP) cells; BrdU 30 minutes, chased 24 hours", "experimental": "HEK293 cells stably overexpressing mTORβ, mTORα or EGFP were pulse labeled with BrdU for 30 minutes and chased every 2 hours for 24 hours. The incorporation of BrdU was measured by FACS analysis. Duration of G1, S and G2 phases of cell cycle observed for each cell line is presented on graph. SD, p=0.05.\nTo further investigate the role of mTORβ in the cell cycle, Hek293 cells overexpressing mTORβ, mTORα or EGFP were pulse labeled with BrdU for 30 minutes and chased every 2 hours for 24 hours. Incorporation of BrdU into the cells was measured by FACS analysis. The duration of the G1, S and G2 phases of cell cycle observed for each cell line was determined (see FIG. 12). The duration of S and G2 phases were similar in all three cell groups. However, the duration of the G1 phase was shorter in the mTORβ overexpressing cells than in the mTORα or control cells."}, "[2]": {"tested_on": "4E-BP1", "experiment": "mTOR in vitro kinase assay, 4E-BP1 substrate", "type": "biochemical", "conditions": "FLAG immunoprecipitate from Hek293 cells, recombinant 4E-BP1 substrate, compared with mTORα", "experimental": "(§1) HEK293 cells were transfected with pcDNA3.1 or pcDNA 3.1 mTORβ. One day later, cells were starved for 24 hours and than stimulated with 10% fetal bovine serum for 1 hour. Rapamycin (10 nM) was added 30 minutes before stimulation. Cells were lysed, resolved by SDS-PAGE and immunobloted with the C-terminal anti-mTOR and pS2448 mTOR antibodies. […] Two days later, cells were lysed and immunoprecipitated with anti-FLAG antibody. The immune complexes were used in mTOR in vitro kinase assay with His-4E-BP1 and His-S6K1C as substrates. Kinase reactions were resolved by SDS-PAGE and immunoblotted with phosphospecific antibodies to 4E-BP1 p65 and S6K1 p389. The level of immunoprecipitated FLAG-mTORα and FLAG-mTORβ was measured by Western blotting with anti-FLAG.\n(§2) Is mTORβ able to phosphorylate S6K and 4E-BP1, which are the main physiological substrates for mTORα? […] The immune complexes were then used in mTOR kinase reactions, containing cold ATP and recombinant 4E-BP1 or His-S6K1C. The kinase reactions were resolved by SDS-PAGE and immunoblotted with phosphospecific antibodies pT389-S6K1 and pS65-4E-BP1.\n(§3) mTOR in vitro kinase assay was performed as published previously (Kim et al. 2002). […] The reactions were stopped by adding 5× sample buffer and resolved by SDS-PAGE and analyzed by immunoblotting."}, "[3]": {"tested_on": "Raptor, Rictor, and GβL", "experiment": "Co-immunoprecipitation with mTOR binding partners in HEK293 cells", "conditions": "anti-FLAG immunoprecipitation from transfected HEK293 cells", "experimental": "HEK293 cells were transfected with pcDNA3.1-mTORβ-FLAG and pRK-Raptor-HA or pcDNA3.1-mTORβ-FLAG and pRK-Rictor-Myc or pcDNA3.1-mTORβ-FLAG and pcRK-GβL. The supernatants of lysed cells were immunoprecipitated with anti-FLAG antibody or control nonspecific antibody. The immune complexes or total cell lysates from transfected cells (15 μg) were resolved by SDS-PAGE and probed in Western blotting with anti-HA, anti-Rictor, or anti-GβL antibodies.\nHEK293 cells were washed with ice-cold phosphate-buffered saline (PBS) and extracted with the lysis buffer containing 50 mM HEPES (pH 7.5), 150 mM NaCl, 1% (v/v) Triton X100, 2 mM EDTA, 50 mM sodium fluoride, 10 mM sodium pyrophosphate, 1 mM sodium orthovanadate, and a mixture of protease inhibitors (Roche Applied Science). Whole-cell extracts were centrifuged at 10,000×g for 30 minutes at 4° C. Endogenous or transiently expressed proteins were immunoprecipitated with corresponding antibodies immobilized on protein A-Sepharose beads (Amersham Biosciences) for 3 hours at 4° C. The immune complexes were then washed once with Tris-buffered saline containing 0.05% Tween 20 and the Wash Buffer 1 (50 mM HEPES [pH 7.5], 40 mM NaCl, and 2 mM EDTA) with 1% Triton X-100, Wash Buffer 1 with 500 mM LiCl and 0.5% Triton X-100, Wash Buffer 1 with 500 mM LiCl, and Wash Buffer 2 (50 mM HEPES [pH 7.5] and 150 mM NaCl). […]"}, "[4]": {"tested_on": "Hek293 cells", "experiment": "Colony formation in agarose (oncogenic potential)", "type": "cell-based, human", "conditions": "stably overexpressing cells, 14 days, MTT stain, compared with mTORα and control cells", "experimental": "HEK293 cells stably overexpressing mTORβ, mTORα or EGFP were plated in a thin layer of agarose in culture medium. After 14 days, colonies were stained using MTT (A). Colonies were counted using Quantity One Software (Bio-Rad) and folds were plotted (B). Data are means±SE of 4 experiments. * P value≦0.01.\nTo further investigate the effect of mTORβ expression on cell oncogenic potential, Hek293 cells stably overexpressing mTORβ, mTORα or EGFP were plated in a thin layer of agarose in culture medium. After 14 days, colonies were stained using MTT (see FIG. 14A). Colonies were counted using quantity 1 software (Bio-Rad) and folds were plotted (see FIG. 14B)."}, "[5]": {"tested_on": "Hek293 stable cell lines", "experiment": "Serum starvation cell survival, Trypan Blue dye exclusion assay", "type": "cell-based, human", "conditions": "stable overexpressing lines serum starved for 60 hours", "experimental": "Hek293 stable cell lines, overexpressing mTORβ wt, mTORα wt, mTORβ kinase dead or EGFP were serum starved for 60 hours. Cell survival was assessed by the Trypan Blue dye exclusion assay. Data are means±SE of 5 experiments. * P value≦0.01.\nThe effects of mTORβ in serum starved cells were also assessed. Hek293 stable cell lines, overexpressing mTORβ wt, mTORα wt, mTORβ kinase dead or EGFP were serum starved for 60 hours. Cell survival was assessed by the Trypan Blue dye exclusion assay."}, "[6]": {"tested_on": "Hek293 cells", "experiment": "Recovery from Sorbitol-induced stress", "type": "cell-based, human", "conditions": "overexpressing cells, compared with mTORα overexpressing cells"}, "[7]": {"tested_on": "Hek293 stable cell lines", "experiment": "Cell proliferation assay (Resazurin based) of Hek293 stable cell lines", "design": "species or system human", "conditions": "six independent studies", "experimental": "(§4) Hek293 stable cell lines, over-expressing mTORβ wt, mTORα wt or EGFP were seeded into a 96 well plate at various densities (250, 500, 1000 and 2000 cells per well) and grown under standard conditions for 7 days. Cell numbers were than measured in each well by a Resosurin based assay. Normalized growth curves for each cell line were calculated using data from six independent experiments (A). Western blot analysis of total cell lysates of stable cell lines with antibodies to c-myc and its transcription targets (B). The level of proteins was densitometrically measured, actin normalized and folds were calculated against EGFP expressing stable cell line (C).\n(§5) HEK293 stable cell lines, overexpressing mTORβ wt, mTORβ kinase-dead or EGFP were seeded into 96 well plate at various densities (1000, 2000, 4000 and 8000 cells per well) and grown under standard conditions for 5 days. Cell numbers were then measured in each well by Resazurin based assay. Normalized growth curves for each cell line were calculated using data from six independent experiments (A). Western blot analysis of total cell lysates of stable cell lines with antibodies to c-myc and its transcription targets. The level of proteins was densitometrically measured, actin normalized and folds were calculated against EGFP expressing stable cell line (B). […]"}, "[8]": {"tested_on": "S6K1", "experiment": "mTOR in vitro kinase assay, His-S6K1C substrate", "type": "biochemical", "conditions": "FLAG immunoprecipitate from Hek293 cells, compared with mTORα", "experimental": "as §1, §2, §3"}, "[9]": {"tested_on": "c-Myc", "experiment": "Western blot of c-Myc protein level in transfected HEK293 cells", "type": "cell-based, human", "conditions": "HEK293 transiently transfected, lysed two days after transfection", "experimental": "as §4, §5"}},
  "data": [
    {"molecule": "mTORβ: splice form of mTOR: fusion of amino acids 1 to 23 and 1867 to 2549 of mTORα, 706 amino acids (SEQ ID NO: 2) (protein, listed as Homo sapiens) MLGTGPAAATTAATTSSNVSVLQKKVTEDLSKTLLMYTVPAVQGFFRSISLSRGNNLQDTLRVLTLWFDYGHWPDVNEALVEGVKAIQIDTWLQVIPQLIARIDTPRPLVGRLIHQLLTDIGRYHPQALIYPLTVASKSTTTARHNAANKILKNMCEHSNTLVQQAMMVSEELIRVAILWHEMWHEGLEEASRLYFGERNVKGMFEVLEPLHAMMERGPQTLKETSFNQAYGRDLMEAQEWCRKYMKSGNVKDLTQAWDLYYHVFRRISKQLPQLTSLELQYVSPKLLMCRDLELAVPGTYDPNQPIIRIQSIAPSLQVITSKQRPRKLTLMGSNGHEFVFLLKGHEDLRQDERVMQLFGLVNTLLANDPTSLRKNLSIQRYAVIPLSTNSGLIGWVPHCDTLHALIRDYREKKKILLNIEHRIMLRMAPDYDHLTLMQKVEVFEHAVNNTAGDDLAKLLWLKSPSSEVWFDRRTNYTRSLAVMSMVGYILGLGDRHPSNLMLDRLSGKILHIDFGDCFEVAMTREKFPEKIPFRLTRMLTNAMEVTGLDGNYRITCHTVMEVLREHKDSVMAVLEAFVYDPLLNWRLMDTNTKGNKRSRTRTDSYSAGQSVEILDGVELGEPAHKKTGTTVPESIHSFIGDGLVKPEALNKKAIQIINRVRDKLTGRDFSHDDTLDVPTQVELLIKQATSHENLCQCYIGWCPFW", "values": [
      {"measurement": "duration of the G1 phase", "setting": "[1]", "result": "shorter"},
      {"measurement": "phosphorylation of 4E-BP1 (pS65) in vitro", "setting": "[2]", "result": "to a lesser extent than mTORα"},
      {"measurement": "complex formation with exogenously expressed Raptor, Rictor, and GβL", "setting": "[3]", "result": "form specific complexes"},
      {"measurement": "cell oncogenic potential (colonies in agarose)", "setting": "[4]", "result": "increase in cell oncogenic potential"},
      {"measurement": "cell survival after serum starvation", "setting": "[5]", "result": "protected cells from starvation induced cell death"},
      {"measurement": "recovery from Sorbitol-induced stress", "setting": "[6]", "result": "much faster"},
      {"measurement": "proliferation rate in comparison to control (EGFP) cells", "setting": "[7]; overexpressing stable lines grown 5 days", "result": "approximately 1.6 times faster"},
      {"measurement": "proliferation compared to control (EGFP) cells", "setting": "[7]; overexpressing stable lines grown 7 days", "result": "proliferate faster"},
      {"measurement": "phosphorylation of S6K1 (pT389) in vitro", "setting": "[8]", "result": "to a lesser extent than mTORα"},
      {"measurement": "c-Myc protein level", "setting": "[9]", "result": "significant increase"}
    ]}
  ]
}
